Results from the supplement of paper PMC10065799, “High-throughput profiling of sequence recognition by tyrosine kinases and SH2 domains using bacterial peptide display” (eLife, 2023).

Key:
FGFR1 = FGFR1 (UniProt P11362); assay: phosphorylation enrichment, bacterial display (enrichment ratio); higher = better substrate or ligand; peptides without Tyr show the background
Fer (mouse) = assay: as above
Fyn = Fyn (UniProt P06241); assay: as above
AncSZ = assay: as above
c-Src = assay: as above
EPHB1 = EPHB1 (UniProt P54762); assay: as above
Sequence of EPHB1 (P54762 whole entry, looked up): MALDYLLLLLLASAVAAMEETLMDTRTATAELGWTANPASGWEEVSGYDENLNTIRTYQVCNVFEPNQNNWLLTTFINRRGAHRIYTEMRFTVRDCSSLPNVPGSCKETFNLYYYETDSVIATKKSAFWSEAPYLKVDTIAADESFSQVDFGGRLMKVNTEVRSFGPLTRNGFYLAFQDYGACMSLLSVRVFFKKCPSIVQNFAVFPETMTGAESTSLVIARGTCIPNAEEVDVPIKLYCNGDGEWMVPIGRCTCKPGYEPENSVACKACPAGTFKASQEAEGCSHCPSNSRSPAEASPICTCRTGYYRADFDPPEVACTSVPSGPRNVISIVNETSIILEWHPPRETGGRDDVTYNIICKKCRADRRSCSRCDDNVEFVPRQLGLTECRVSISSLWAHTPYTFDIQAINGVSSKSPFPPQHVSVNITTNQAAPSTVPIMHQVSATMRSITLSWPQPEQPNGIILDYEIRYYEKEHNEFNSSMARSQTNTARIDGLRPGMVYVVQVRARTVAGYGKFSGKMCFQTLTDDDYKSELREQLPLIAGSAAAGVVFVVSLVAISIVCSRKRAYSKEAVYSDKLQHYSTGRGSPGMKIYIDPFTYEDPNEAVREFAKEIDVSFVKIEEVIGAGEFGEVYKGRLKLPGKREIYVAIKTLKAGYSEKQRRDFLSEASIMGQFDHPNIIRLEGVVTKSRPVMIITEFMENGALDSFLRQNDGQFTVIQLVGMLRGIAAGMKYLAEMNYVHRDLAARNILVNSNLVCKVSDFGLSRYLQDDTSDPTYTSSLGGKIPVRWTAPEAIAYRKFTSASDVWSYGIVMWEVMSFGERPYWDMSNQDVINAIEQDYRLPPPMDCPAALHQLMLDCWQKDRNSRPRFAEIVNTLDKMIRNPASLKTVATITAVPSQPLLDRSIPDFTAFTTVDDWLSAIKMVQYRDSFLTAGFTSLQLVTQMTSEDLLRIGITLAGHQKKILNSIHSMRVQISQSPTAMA

MERTK = MERTK (UniProt Q12866); assay: as above
Sequence of MERTK (Q12866 whole entry, looked up): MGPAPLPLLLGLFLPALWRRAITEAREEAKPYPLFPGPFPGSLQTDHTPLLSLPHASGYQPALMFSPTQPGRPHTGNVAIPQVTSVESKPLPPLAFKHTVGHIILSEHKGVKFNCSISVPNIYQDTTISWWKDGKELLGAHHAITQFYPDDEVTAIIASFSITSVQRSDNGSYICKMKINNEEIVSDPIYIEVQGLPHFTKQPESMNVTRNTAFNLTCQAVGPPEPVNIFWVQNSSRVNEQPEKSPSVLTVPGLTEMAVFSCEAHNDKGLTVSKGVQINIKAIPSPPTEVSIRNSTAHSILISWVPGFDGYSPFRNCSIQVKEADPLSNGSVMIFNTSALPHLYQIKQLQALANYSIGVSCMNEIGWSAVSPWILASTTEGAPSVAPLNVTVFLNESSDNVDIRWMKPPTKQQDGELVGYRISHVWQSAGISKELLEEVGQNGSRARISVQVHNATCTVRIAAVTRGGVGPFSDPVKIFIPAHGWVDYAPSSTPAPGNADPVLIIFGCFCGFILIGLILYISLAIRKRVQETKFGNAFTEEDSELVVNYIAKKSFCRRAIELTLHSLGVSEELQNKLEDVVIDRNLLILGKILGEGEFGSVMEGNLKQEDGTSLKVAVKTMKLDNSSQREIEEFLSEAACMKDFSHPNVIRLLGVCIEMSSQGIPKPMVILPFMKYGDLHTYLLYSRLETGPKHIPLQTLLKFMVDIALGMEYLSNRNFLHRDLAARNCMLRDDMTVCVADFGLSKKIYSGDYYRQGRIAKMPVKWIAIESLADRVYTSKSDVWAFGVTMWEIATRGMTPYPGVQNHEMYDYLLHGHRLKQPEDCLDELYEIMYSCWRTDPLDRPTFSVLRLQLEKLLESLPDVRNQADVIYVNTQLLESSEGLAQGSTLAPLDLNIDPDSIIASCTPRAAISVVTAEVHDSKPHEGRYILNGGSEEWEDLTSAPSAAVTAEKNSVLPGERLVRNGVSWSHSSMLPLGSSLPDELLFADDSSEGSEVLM

Jak2 = Jak2 (UniProt O60674); assay: as above
Hck = Hck (UniProt P08631); assay: as above
Sequence of Hck (P08631 whole entry, looked up): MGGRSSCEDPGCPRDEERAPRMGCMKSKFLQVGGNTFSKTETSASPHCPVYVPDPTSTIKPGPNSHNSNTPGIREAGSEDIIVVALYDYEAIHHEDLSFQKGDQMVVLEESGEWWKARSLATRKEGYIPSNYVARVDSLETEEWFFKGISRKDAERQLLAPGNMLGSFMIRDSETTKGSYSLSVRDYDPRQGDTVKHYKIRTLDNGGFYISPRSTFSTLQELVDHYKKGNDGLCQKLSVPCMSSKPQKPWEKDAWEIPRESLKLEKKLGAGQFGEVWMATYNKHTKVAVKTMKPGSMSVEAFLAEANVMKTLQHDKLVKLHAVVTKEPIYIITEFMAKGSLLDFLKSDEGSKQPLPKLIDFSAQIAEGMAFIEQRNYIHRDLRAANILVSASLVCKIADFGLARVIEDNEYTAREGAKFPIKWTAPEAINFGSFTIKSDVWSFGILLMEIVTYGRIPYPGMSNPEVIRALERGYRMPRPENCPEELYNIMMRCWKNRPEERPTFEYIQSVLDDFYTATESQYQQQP

c-Abl (mouse) = assay: as above
Fes = Fes (UniProt P07332); assay: as above
EPHB2 = EPHB2 (UniProt P29323); assay: as above
FGFR3 = FGFR3 (UniProt P22607); assay: as above
Sequence of FGFR3 (P22607 whole entry, looked up): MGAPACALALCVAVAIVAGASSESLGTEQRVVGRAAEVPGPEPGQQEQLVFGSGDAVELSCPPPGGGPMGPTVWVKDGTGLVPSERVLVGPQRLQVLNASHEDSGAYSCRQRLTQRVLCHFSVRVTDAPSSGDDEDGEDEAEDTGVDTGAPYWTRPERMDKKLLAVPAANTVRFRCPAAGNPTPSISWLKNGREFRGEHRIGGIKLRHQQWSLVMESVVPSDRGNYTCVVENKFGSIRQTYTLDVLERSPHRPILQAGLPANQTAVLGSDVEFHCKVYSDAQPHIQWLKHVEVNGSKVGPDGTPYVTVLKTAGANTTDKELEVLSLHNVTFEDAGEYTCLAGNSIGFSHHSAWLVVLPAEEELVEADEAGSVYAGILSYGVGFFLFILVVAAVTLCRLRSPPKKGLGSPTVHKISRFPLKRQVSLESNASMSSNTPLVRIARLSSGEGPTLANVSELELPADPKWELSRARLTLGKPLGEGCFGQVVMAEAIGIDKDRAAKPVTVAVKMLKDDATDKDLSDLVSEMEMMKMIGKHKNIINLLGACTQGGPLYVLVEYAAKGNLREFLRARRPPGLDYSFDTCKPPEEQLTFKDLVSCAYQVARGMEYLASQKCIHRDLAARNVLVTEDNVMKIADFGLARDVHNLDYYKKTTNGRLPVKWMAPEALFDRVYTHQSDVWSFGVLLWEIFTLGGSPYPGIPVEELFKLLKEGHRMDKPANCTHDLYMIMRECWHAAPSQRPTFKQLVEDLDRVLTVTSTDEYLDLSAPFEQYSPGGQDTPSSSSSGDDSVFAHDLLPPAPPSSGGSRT

Grb2 SH2 = Grb2 SH2 (UniProt P62993); assay: SH2 binding enrichment of the phosphorylated peptide, bacterial display (enrichment ratio); higher = better substrate or ligand; peptides without Tyr show the background
Sequence of Grb2 SH2 (P62993 whole entry, looked up): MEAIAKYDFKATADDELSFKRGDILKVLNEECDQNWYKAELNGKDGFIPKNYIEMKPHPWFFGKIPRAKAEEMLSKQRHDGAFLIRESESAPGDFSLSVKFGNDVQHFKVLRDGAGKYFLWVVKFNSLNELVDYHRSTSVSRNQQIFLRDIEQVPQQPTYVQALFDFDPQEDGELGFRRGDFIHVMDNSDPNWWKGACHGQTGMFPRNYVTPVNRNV

c-Src SH2 = assay: as above
SHP2-C SH2 = assay: as above
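Wherever SH2 binding enrichment of the phosphorylated peptide, bacterial display is given: peptide library displayed on the E. coli surface as eCPX fusions, selected cells deep-sequenced, score is each peptide's frequency after selection divided by its frequency in the input.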
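Wherever phosphorylation enrichment, bacterial display is given: 11-residue human phosphosite peptides and single-mutation variants displayed on the E. coli surface, counted by deep sequencing, each peptide's frequency after selection divided by its frequency in the unselected input library; frequency after pTyr selection over input frequency; kinase dosed for 20-30% of maximal phosphorylation in three min.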

Sequence of FGFR1 (P11362 whole entry, looked up): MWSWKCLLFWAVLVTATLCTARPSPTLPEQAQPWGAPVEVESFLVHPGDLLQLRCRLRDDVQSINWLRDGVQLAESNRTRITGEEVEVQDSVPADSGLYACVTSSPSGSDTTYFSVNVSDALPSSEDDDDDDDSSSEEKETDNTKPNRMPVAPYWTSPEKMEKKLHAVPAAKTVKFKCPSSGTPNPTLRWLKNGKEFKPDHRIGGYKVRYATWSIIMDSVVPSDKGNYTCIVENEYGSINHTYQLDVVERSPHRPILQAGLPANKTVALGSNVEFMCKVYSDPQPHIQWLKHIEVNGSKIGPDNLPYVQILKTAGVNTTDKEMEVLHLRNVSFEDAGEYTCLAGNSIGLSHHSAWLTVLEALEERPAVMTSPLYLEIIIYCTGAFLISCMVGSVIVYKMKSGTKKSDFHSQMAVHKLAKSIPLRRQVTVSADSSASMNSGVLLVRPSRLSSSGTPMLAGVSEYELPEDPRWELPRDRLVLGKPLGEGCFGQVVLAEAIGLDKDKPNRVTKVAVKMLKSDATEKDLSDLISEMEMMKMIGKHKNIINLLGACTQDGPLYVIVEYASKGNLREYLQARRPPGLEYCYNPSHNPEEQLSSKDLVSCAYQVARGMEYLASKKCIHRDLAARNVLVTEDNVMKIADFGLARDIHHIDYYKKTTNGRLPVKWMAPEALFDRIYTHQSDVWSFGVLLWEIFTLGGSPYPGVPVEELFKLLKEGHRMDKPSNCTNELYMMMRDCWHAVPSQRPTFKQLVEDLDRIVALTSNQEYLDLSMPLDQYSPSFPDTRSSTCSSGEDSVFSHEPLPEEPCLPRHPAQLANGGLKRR
Sequence of Fyn (P06241 whole entry, looked up): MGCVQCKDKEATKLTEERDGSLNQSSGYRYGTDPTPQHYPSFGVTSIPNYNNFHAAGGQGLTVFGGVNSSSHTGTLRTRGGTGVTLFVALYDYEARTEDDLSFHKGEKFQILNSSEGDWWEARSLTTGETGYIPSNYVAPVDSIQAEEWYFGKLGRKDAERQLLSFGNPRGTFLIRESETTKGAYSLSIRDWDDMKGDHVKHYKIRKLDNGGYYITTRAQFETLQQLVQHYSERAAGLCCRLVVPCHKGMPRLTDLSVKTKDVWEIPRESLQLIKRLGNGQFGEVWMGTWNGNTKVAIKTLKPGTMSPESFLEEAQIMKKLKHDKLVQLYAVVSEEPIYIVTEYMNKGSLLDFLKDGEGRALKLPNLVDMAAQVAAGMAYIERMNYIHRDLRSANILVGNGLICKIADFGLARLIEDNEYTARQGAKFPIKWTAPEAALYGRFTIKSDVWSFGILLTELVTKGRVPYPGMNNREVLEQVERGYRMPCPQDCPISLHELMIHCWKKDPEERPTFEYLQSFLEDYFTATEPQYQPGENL

Work on FKDFFYCWNTS [AICDA_Y146_F151S_YF] yielded a phosphorylation enrichment (FGFR1) of 0.496, a phosphorylation enrichment (Fer (mouse)) of 0.768 and a phosphorylation enrichment (Fyn) of 0.458. For the same sequence, the phosphorylation enrichment (AncSZ) was 1.32, the phosphorylation enrichment (c-Src) was 0.589 and the phosphorylation enrichment (EPHB1) was 0.942. The phosphorylation enrichment (MERTK) was 0.836, the phosphorylation enrichment (Jak2) was 1.42 and the phosphorylation enrichment (Hck) was 0.589. The phosphorylation enrichment (c-Abl (mouse)) was 1.08, the phosphorylation enrichment (Fes) was 1.5 and the phosphorylation enrichment (EPHB2) was 0.61. The phosphorylation enrichment (FGFR3) was 0.939, the SH2 binding enrichment (Grb2 SH2) was 0.815 and the SH2 binding enrichment (c-Src SH2) was 0.59. It also gave an SH2 binding enrichment (SHP2-C SH2) of 0.689.

FKDVTYLTEEK [UBE3A_Y127] was tested, and the phosphorylation enrichment (FGFR1) was 0.524, the phosphorylation enrichment (Fer (mouse)) was 0.423 and the phosphorylation enrichment (Fyn) was 0.747. The phosphorylation enrichment (AncSZ) was 1.15, the phosphorylation enrichment (c-Src) was 0.511 and the phosphorylation enrichment (EPHB1) was 0.618. For the same sequence, the phosphorylation enrichment (MERTK) was 0.51, the phosphorylation enrichment (Jak2) was 0.959 and the phosphorylation enrichment (Hck) was 0.53. For the same sequence, the phosphorylation enrichment (c-Abl (mouse)) was 0.726, the phosphorylation enrichment (Fes) was 1.09 and the phosphorylation enrichment (EPHB2) was 0.691. The phosphorylation enrichment (FGFR3) was 0.683, the SH2 binding enrichment (Grb2 SH2) was 1.11 and the SH2 binding enrichment (c-Src SH2) was 0.429. It also gave an SH2 binding enrichment (SHP2-C SH2) of 0.777.

In the case of FKGIVYAVSSD [DCX_Y70], the phosphorylation enrichment (FGFR1) is reported as 0.424, the phosphorylation enrichment (Fer (mouse)) is reported as 0.428 and the phosphorylation enrichment (Fyn) is reported as 0.484. It also gave a phosphorylation enrichment (AncSZ) of 0.86, a phosphorylation enrichment (c-Src) of 0.49 and a phosphorylation enrichment (EPHB1) of 0.416. The phosphorylation enrichment (MERTK) was 0.371, the phosphorylation enrichment (Jak2) was 0.802 and the phosphorylation enrichment (Hck) was 0.391. It also gave a phosphorylation enrichment (c-Abl (mouse)) of 0.629, a phosphorylation enrichment (Fes) of 0.916 and a phosphorylation enrichment (EPHB2) of 0.49. The phosphorylation enrichment (FGFR3) was 0.505, the SH2 binding enrichment (Grb2 SH2) was 0.809 and the SH2 binding enrichment (c-Src SH2) was 0.535. For the same sequence, the SH2 binding enrichment (SHP2-C SH2) was 0.825.

Sequence FKTPIYPFLLP [PLD2_Y578_T577I_YF] has a phosphorylation enrichment (FGFR1) of 1.06, a phosphorylation enrichment (Fer (mouse)) of 0.497 and a phosphorylation enrichment (Fyn) of 0.456. For the same sequence, the phosphorylation enrichment (AncSZ) was 1.11, the phosphorylation enrichment (c-Src) was 0.559 and the phosphorylation enrichment (EPHB1) was 0.564. The phosphorylation enrichment (MERTK) was 1.57, the phosphorylation enrichment (Jak2) was 0.91 and the phosphorylation enrichment (Hck) was 0.523. It also gave a phosphorylation enrichment (c-Abl (mouse)) of 0.747, a phosphorylation enrichment (Fes) of 0.883 and a phosphorylation enrichment (EPHB2) of 0.563. The phosphorylation enrichment (FGFR3) was 0.782, the SH2 binding enrichment (Grb2 SH2) was 1.14 and the SH2 binding enrichment (c-Src SH2) was 0.825. It also gave an SH2 binding enrichment (SHP2-C SH2) of 0.892.

Sequence FLAAIYPTVGQ [NF1_Y2508_T2507I_YF] has a phosphorylation enrichment (FGFR1) of 0.473, a phosphorylation enrichment (Fer (mouse)) of 0.382 and a phosphorylation enrichment (Fyn) of 0.39. The phosphorylation enrichment (AncSZ) was 0.724, the phosphorylation enrichment (c-Src) was 0.442 and the phosphorylation enrichment (EPHB1) was 0.58. The phosphorylation enrichment (MERTK) was 0.406, the phosphorylation enrichment (Jak2) was 0.798 and the phosphorylation enrichment (Hck) was 0.477. The phosphorylation enrichment (c-Abl (mouse)) was 0.389, the phosphorylation enrichment (Fes) was 0.943 and the phosphorylation enrichment (EPHB2) was 0.358. For the same sequence, the phosphorylation enrichment (FGFR3) was 0.583, the SH2 binding enrichment (Grb2 SH2) was 1.01 and the SH2 binding enrichment (c-Src SH2) was 0.759. The SH2 binding enrichment (SHP2-C SH2) was 0.641.

Work on FLEKFYKFGCR [NNMT_Y25_S29C_YF] yielded a phosphorylation enrichment (FGFR1) of 0.631, a phosphorylation enrichment (Fer (mouse)) of 0.546 and a phosphorylation enrichment (Fyn) of 0.512. The phosphorylation enrichment (AncSZ) was 0.934, the phosphorylation enrichment (c-Src) was 0.446 and the phosphorylation enrichment (EPHB1) was 0.522. The phosphorylation enrichment (MERTK) was 0.432, the phosphorylation enrichment (Jak2) was 0.961 and the phosphorylation enrichment (Hck) was 0.443. It also gave a phosphorylation enrichment (c-Abl (mouse)) of 0.884, a phosphorylation enrichment (Fes) of 1.12 and a phosphorylation enrichment (EPHB2) of 0.506. It also gave a phosphorylation enrichment (FGFR3) of 0.696, an SH2 binding enrichment (Grb2 SH2) of 1.11 and an SH2 binding enrichment (c-Src SH2) of 0.781. For the same sequence, the SH2 binding enrichment (SHP2-C SH2) was 1.22.

Sequence FLELNYKEDEF [MME_Y502_YF] has a phosphorylation enrichment (FGFR1) of 0.565, a phosphorylation enrichment (Fer (mouse)) of 0.524 and a phosphorylation enrichment (Fyn) of 0.461. For the same sequence, the phosphorylation enrichment (AncSZ) was 1.34, the phosphorylation enrichment (c-Src) was 0.349 and the phosphorylation enrichment (EPHB1) was 0.612. For the same sequence, the phosphorylation enrichment (MERTK) was 0.344, the phosphorylation enrichment (Jak2) was 0.848 and the phosphorylation enrichment (Hck) was 0.552. The phosphorylation enrichment (c-Abl (mouse)) was 0.589, the phosphorylation enrichment (Fes) was 1.05 and the phosphorylation enrichment (EPHB2) was 0.569. For the same sequence, the phosphorylation enrichment (FGFR3) was 0.633, the SH2 binding enrichment (Grb2 SH2) was 0.856 and the SH2 binding enrichment (c-Src SH2) was 0.585. The SH2 binding enrichment (SHP2-C SH2) was 0.773.

With FLQEIHNSNNQ [FGG_Y140_Y140H_YF] the phosphorylation enrichment (FGFR1) was 0.606, the phosphorylation enrichment (Fer (mouse)) was 0.607 and the phosphorylation enrichment (Fyn) was 0.511. The phosphorylation enrichment (AncSZ) was 0.823, the phosphorylation enrichment (c-Src) was 0.391 and the phosphorylation enrichment (EPHB1) was 0.561. For the same sequence, the phosphorylation enrichment (MERTK) was 0.443, the phosphorylation enrichment (Jak2) was 0.63 and the phosphorylation enrichment (Hck) was 0.538. The phosphorylation enrichment (c-Abl (mouse)) was 0.808, the phosphorylation enrichment (Fes) was 1.01 and the phosphorylation enrichment (EPHB2) was 0.436. The phosphorylation enrichment (FGFR3) was 0.716, the SH2 binding enrichment (Grb2 SH2) was 0.71 and the SH2 binding enrichment (c-Src SH2) was 0.416. For the same sequence, the SH2 binding enrichment (SHP2-C SH2) was 0.867.

For FMIISYVLIIR [OR1D2_Y218_V214M], the phosphorylation enrichment (FGFR1) was 0.651, the phosphorylation enrichment (Fer (mouse)) was 0.491 and the phosphorylation enrichment (Fyn) was 0.426. The phosphorylation enrichment (AncSZ) was 0.936, the phosphorylation enrichment (c-Src) was 0.437 and the phosphorylation enrichment (EPHB1) was 0.225. For the same sequence, the phosphorylation enrichment (MERTK) was 0.446, the phosphorylation enrichment (Jak2) was 0.383 and the phosphorylation enrichment (Hck) was 0.553. It also gave a phosphorylation enrichment (c-Abl (mouse)) of 0.625, a phosphorylation enrichment (Fes) of 0.631 and a phosphorylation enrichment (EPHB2) of 0.483. For the same sequence, the phosphorylation enrichment (FGFR3) was 0.559, the SH2 binding enrichment (Grb2 SH2) was 2.38 and the SH2 binding enrichment (c-Src SH2) was 1.38. The SH2 binding enrichment (SHP2-C SH2) was 1.52.

In the case of FMMMRYSQNVR [SDAD1_Y656], the phosphorylation enrichment (FGFR1) is reported as 0.432, the phosphorylation enrichment (Fer (mouse)) is reported as 0.58 and the phosphorylation enrichment (Fyn) is reported as 0.424. For the same sequence, the phosphorylation enrichment (AncSZ) was 1.11, the phosphorylation enrichment (c-Src) was 0.365 and the phosphorylation enrichment (EPHB1) was 0.614. It also gave a phosphorylation enrichment (MERTK) of 0.493, a phosphorylation enrichment (Jak2) of 0.939 and a phosphorylation enrichment (Hck) of 0.475. The phosphorylation enrichment (c-Abl (mouse)) was 0.701, the phosphorylation enrichment (Fes) was 1.04 and the phosphorylation enrichment (EPHB2) was 0.626. The phosphorylation enrichment (FGFR3) was 0.782, the SH2 binding enrichment (Grb2 SH2) was 1.52 and the SH2 binding enrichment (c-Src SH2) was 1.03. It also gave an SH2 binding enrichment (SHP2-C SH2) of 1.43.

With FNDSTYNQQLI [ZPLD1_Y198_YF] the phosphorylation enrichment (FGFR1) was 0.651, the phosphorylation enrichment (Fer (mouse)) was 0.463 and the phosphorylation enrichment (Fyn) was 0.429. The phosphorylation enrichment (AncSZ) was 0.883, the phosphorylation enrichment (c-Src) was 0.617 and the phosphorylation enrichment (EPHB1) was 0.474. It also gave a phosphorylation enrichment (MERTK) of 0.431, a phosphorylation enrichment (Jak2) of 0.863 and a phosphorylation enrichment (Hck) of 0.482. For the same sequence, the phosphorylation enrichment (c-Abl (mouse)) was 0.694, the phosphorylation enrichment (Fes) was 0.878 and the phosphorylation enrichment (EPHB2) was 0.483. It also gave a phosphorylation enrichment (FGFR3) of 0.555, an SH2 binding enrichment (Grb2 SH2) of 0.852 and an SH2 binding enrichment (c-Src SH2) of 0.437. The SH2 binding enrichment (SHP2-C SH2) was 0.498.

In the case of FNNFGYGNDGF [HNRNPH3_Y161_YF], the phosphorylation enrichment (FGFR1) is reported as 0.546, the phosphorylation enrichment (Fer (mouse)) is reported as 0.499 and the phosphorylation enrichment (Fyn) is reported as 0.505. It also gave a phosphorylation enrichment (AncSZ) of 0.828, a phosphorylation enrichment (c-Src) of 0.507 and a phosphorylation enrichment (EPHB1) of 0.403. For the same sequence, the phosphorylation enrichment (MERTK) was 0.491, the phosphorylation enrichment (Jak2) was 0.937 and the phosphorylation enrichment (Hck) was 0.447. For the same sequence, the phosphorylation enrichment (c-Abl (mouse)) was 0.606, the phosphorylation enrichment (Fes) was 0.939 and the phosphorylation enrichment (EPHB2) was 0.518. For the same sequence, the phosphorylation enrichment (FGFR3) was 0.557, the SH2 binding enrichment (Grb2 SH2) was 0.936 and the SH2 binding enrichment (c-Src SH2) was 0.554. The SH2 binding enrichment (SHP2-C SH2) was 0.704.

For FNNFGYGSDGF [HNRNPH3_Y161_N163S_YF], the phosphorylation enrichment (FGFR1) was 0.499, the phosphorylation enrichment (Fer (mouse)) was 0.455 and the phosphorylation enrichment (Fyn) was 0.442. The phosphorylation enrichment (AncSZ) was 0.856, the phosphorylation enrichment (c-Src) was 0.453 and the phosphorylation enrichment (EPHB1) was 0.527. The phosphorylation enrichment (MERTK) was 0.455, the phosphorylation enrichment (Jak2) was 0.829 and the phosphorylation enrichment (Hck) was 0.57. It also gave a phosphorylation enrichment (c-Abl (mouse)) of 0.727, a phosphorylation enrichment (Fes) of 0.962 and a phosphorylation enrichment (EPHB2) of 0.592. For the same sequence, the phosphorylation enrichment (FGFR3) was 0.593, the SH2 binding enrichment (Grb2 SH2) was 0.823 and the SH2 binding enrichment (c-Src SH2) was 0.386. The SH2 binding enrichment (SHP2-C SH2) was 0.685.

FNVLQYVVPEV [EIF3A_Y382] showed a phosphorylation enrichment (FGFR1) of 2.06, a phosphorylation enrichment (Fer (mouse)) of 0.701 and a phosphorylation enrichment (Fyn) of 0.629. For the same sequence, the phosphorylation enrichment (AncSZ) was 1.88, the phosphorylation enrichment (c-Src) was 0.58 and the phosphorylation enrichment (EPHB1) was 0.933. The phosphorylation enrichment (MERTK) was 1.99, the phosphorylation enrichment (Jak2) was 1.55 and the phosphorylation enrichment (Hck) was 0.635. The phosphorylation enrichment (c-Abl (mouse)) was 5.16, the phosphorylation enrichment (Fes) was 1.32 and the phosphorylation enrichment (EPHB2) was 1.02. For the same sequence, the phosphorylation enrichment (FGFR3) was 1.85, the SH2 binding enrichment (Grb2 SH2) was 0.835 and the SH2 binding enrichment (c-Src SH2) was 0.599. It also gave an SH2 binding enrichment (SHP2-C SH2) of 0.963.
